Assay [1] concerns the target T1, GroEL^SR (GroEL R452A/E461A/S463A/V464A) (E. coli, UniProt P0A6F5 1-548, R452A | E461A | S463A | V464A).
T1 construct: GroEL, E. coli, single-ring variant; groEL^SR in the pTrc vector; also called single-ring GroEL; source: dialysis against 30% methanol, FastQ column
The experiment in a line: MST; cochaperonin labelled with DyLight 650, unlabelled GroEL or GroEL^SR titrated (serial dilution of 15 samples), 30 min incubation; 50 mM TrisCl pH 7.5, 100 mM KCl, 10 mM MgCl2, 1 mM EDTA, 2 mM ADP, 0.5 mg/mL BSA; Monolith NT115, 80% LED, 40% IR-laser. The following applies: both partners purified.

For another assay, the target named is T2, GroEL (E. coli, UniProt P0A6F5 1-548).
T2 construct: GroEL, E. coli, expressed from pTrc; two heptameric rings (tetradecamer); also called chaperonin; double-ring GroEL; source: E. coli BL21(DE3), purified (methanol dialysis, FastQ column); copies: 14
As to the kind of experiment: MST; cochaperonin labelled with DyLight 650; unlabelled GroEL or GroEL^SR in a serial dilution of 15 samples; 50 mM TrisCl pH 7.5, 100 mM KCl, 10 mM MgCl2, 1 mM EDTA, 2 mM ADP, 0.5 mg/mL BSA; 30 min incubation. The following applies: both partners purified.

B1: GroES (natural protein, E. coli, UniProt P0A6F9 1-97, looked up)
chain: MNIRPLHDRVIVKRKEVETKSAGGIVLTGSAAAKSTRGEVLAVGNGRILENGEVKPLDVKVGDIVIFNDGYGVKSEKIDNEEVLIMSESDILAIVEA
modifications: DyLight 650 NHS Ester amine reactive dye (labelled)
notes: GroES, E. coli; one heptameric ring; groES in pET3b; also called cochaperonin
What is called Kd is the constant that tells how readily two partners part at equilibrium. Read a low Kd as higher affinity. As for B1, in assay [1], binding was put at a Kd of 3.67 nM.

B2: GroES (natural protein, E. coli, UniProt P0A6F9 1-97, looked up)
chain: B1 chain
modifications: DyLight 650 NHS ester on amines (for MST)
notes: GroES, E. coli, expressed from pET3b; heptamer; also called cochaperonin; wild type GroES
In the assay with GroEL, B2 came in with a Kd of 3.83 ± 0.93 nM.
